Assay results reported in patent US11969464B2, “Amidated peptides and their deamidated counterparts displayed by HLA-A*02 for use in immunotherapy against different types of cancers” (Immatics Biotechnologies GmbH, priority 2020, dated 2024).

Biological target: HLA-A*02:01 (Homo sapiens, UniProt P04439, D140Y/D185E/D98H/E176V/E277Q/G131W/G231S/I119V/I121R/I166T/I218V/L300P/L318F/N151K/N90K/P208A/P217A/Q86G/Q94H/R138H/R169H/T345S)
Test: MHC binding assay (UV-ligand exchange, anti-β2m ELISA)
Details: peptide exchange yield, binding to HLA-A*02:01
Source text: Candidate peptides for T cell based therapies according to the present invention were further tested for their MHC binding capacity (affinity). The individual peptide-MHC complexes were produced by UV-ligand exchange, where a UV-sensitive peptide is cleaved upon UV-irradiation and exchanged with the peptide of interest as analyzed. Only peptide candidates that can effectively bind and stabilize the peptide-receptive MHC molecules prevent dissociation of the MHC complexes. To determine the yield of the exchange reaction, an ELISA was performed based on the detection of the light chain (β2m) of stabilized MHC complexes. The assay was performed as generally described in Rodenko et al. (Rodenko et al., 2006).
96 well MAXISorp plates (NUNC) were coated over night with 2 μg/ml streptavidin in PBS at room temperature, washed 4× and blocked for 1 h at 37° C. in 2% BSA containing blocking buffer. Refolded HLA-A*02:01/MLA-001 monomers served as standards, covering the range of 15-500 ng/ml. Peptide-MHC monomers of the UV-exchange reaction were diluted 100-fold in blocking buffer. Samples were incubated for 1 h at 37° C., washed four times, incubated with 2 μg/ml HRP conjugated anti-β2m for 1 h at 37° C., washed again and detected with TMB solution that is stopped with […]. Absorption was measured at 450 nm. Candidate peptides that show a high exchange yield (preferably higher than 50%, most preferred higher than 75%) are generally preferred for a generation and production of antibodies or fragments thereof, and/or T cell receptors or fragments thereof, as they show sufficient avidity to the MHC molecules and prevent dissociation of the MHC complexes.

Row | Peptide exchange | Substance
1 | +++ (≥50% = +++) | 48 (AIYHDITGISV; peptide displayed by HLA-A*02) [compound 48]
2 | +++ (≥50% = +++) | 84 (KMLDETVLV; peptide displayed by HLA-A*02) [compound 84]
3 | ++++ (≥75% = ++++) | 92 (YLADFSHAT; peptide displayed by HLA-A*02) [compound 92]
4 | ++++ (≥75% = ++++) | 79 (ALAGLVYDA; peptide displayed by HLA-A*02) [compound 79]
5 | +++ (≥50% = +++) | 58 (SQDASLLKV; peptide displayed by HLA-A*02) [compound 58]
6 | ++++ (≥75% = ++++) | 102 (WLIDKSMEL; peptide displayed by HLA-A*02) [compound 102]
7 | ++++ (≥75% = ++++) | 85 (LLDITNPVL; peptide displayed by HLA-A*02) [compound 85]
8 | ++++ (≥75% = ++++) | 75 (KLHDTSFCL; peptide displayed by HLA-A*02) [compound 75]
9 | ++++ (≥75% = ++++) | 72 (ALDSTNSEL; peptide displayed by HLA-A*02) [compound 72]
10 | ++++ (≥75% = ++++) | 83 (FLNVDVSEV; peptide displayed by HLA-A*02) [compound 83]
11 | +++ (≥50% = +++) | 66 (LLDDQTVTF; peptide displayed by HLA-A*02) [compound 66]
12 | ++++ (≥75% = ++++) | 73 (ALMDVSQNV; peptide displayed by HLA-A*02) [compound 73]
13 | ++++ (≥75% = ++++) | 64 (ILFDPDNSSAL; peptide displayed by HLA-A*02) [compound 64]
14 | +++ (≥50% = +++) | 81 (AVDKTQTSV; peptide displayed by HLA-A*02) [compound 81]
15 | +++ (≥50% = +++) | 46 (SLSDVSQAV; peptide displayed by HLA-A*02) [compound 46]
16 | ++++ (≥75% = ++++) | 50 (ALYDSTRELL; peptide displayed by HLA-A*02) [compound 50]
17 | +++ (≥50% = +++) | 67 (LLDTTDVYL; peptide displayed by HLA-A*02) [compound 67]
18 | ++++ (≥75% = ++++) | 43 (KLLNDLTSI; peptide displayed by HLA-A*02) [compound 43]
19 | ++++ (≥75% = ++++) | 49 (ALDDYTITF; peptide displayed by HLA-A*02) [compound 49]
20 | ++++ (≥75% = ++++) | 74 (KILDFTGPLFL; peptide displayed by HLA-A*02) [compound 74]

Row | Peptide exchange | Substance
21 | +++ (≥50% = +++) | 42 (IQDTSHLAV; peptide displayed by HLA-A*02) [compound 42]
22 | ++++ (≥75% = ++++) | 90 (VLDGTEVNL; peptide displayed by HLA-A*02) [compound 90]
23 | ++++ (≥75% = ++++) | 88 (RLLDETVDVTI; peptide displayed by HLA-A*02) [compound 88]
24 | ++++ (≥75% = ++++) | 87 (NMYDLTFHV; peptide displayed by HLA-A*02) [compound 87]
25 | ++++ (≥75% = ++++) | 54 (KLEERVYDV; peptide displayed by HLA-A*02) [compound 54]
26 | ++++ (≥75% = ++++) | 77 (YLHGFDLSL; peptide displayed by HLA-A*02) [compound 77]
27 | ++++ (≥75% = ++++) | 80 (ALDSSLQLL; peptide displayed by HLA-A*02) [compound 80]
28 | ++++ (≥75% = ++++) | 45 (SLFDDSFSL; peptide displayed by HLA-A*02) [compound 45]
29 | ++++ (≥75% = ++++) | 71 (YLGAVFDL; peptide displayed by HLA-A*02) [compound 71]
30 | ++++ (≥75% = ++++) | 60 (TLDITIVNL; peptide displayed by HLA-A*02) [compound 60]
31 | ++++ (≥75% = ++++) | 57 (SLDISLPNL; peptide displayed by HLA-A*02) [compound 57]
32 | +++ (≥50% = +++) | 93 (YLDGTFRLL; peptide displayed by HLA-A*02) [compound 93]
33 | ++++ (≥75% = ++++) | 68 (RLQDTTIGL; peptide displayed by HLA-A*02) [compound 68]
34 | +++ (≥50% = +++) | 40 (FLDQTDETL; peptide displayed by HLA-A*02) [compound 40]
35 | ++++ (≥75% = ++++) | 99 (NLLDHSSMFL; peptide displayed by HLA-A*02) [compound 99]
36 | ++++ (≥75% = ++++) | 69 (SLLDENDVSSYL; peptide displayed by HLA-A*02) [compound 69]
37 | ++++ (≥75% = ++++) | 82 (FLNPDGSDCTL; peptide displayed by HLA-A*02) [compound 82]
38 | ++++ (≥75% = ++++) | 62 (FLKDVTAQI; peptide displayed by HLA-A*02) [compound 62]
39 | ++++ (≥75% = ++++) | 94 (YLWWVNDQSL; peptide displayed by HLA-A*02) [compound 94]

Second part, the substance before the results:

Row | Substance | Peptide exchange
40 | 9 (SLDDSLNEL; peptide displayed by HLA-A*02) [compound 9] | +++ (≥50% = +++)
41 | 31 (TLIDATWLV; peptide displayed by HLA-A*02) [compound 31] | ++++ (≥75% = ++++)
42 | 28 (FLLDGTDMFHM; peptide displayed by HLA-A*02) [compound 28] | +++ (≥50% = +++)
43 | 11 (GLVDGSSVTV; peptide displayed by HLA-A*02) [compound 11] | ++++ (≥75% = ++++)
44 | 10 (FLGEDISNFL; peptide displayed by HLA-A*02) [compound 10] | ++++ (≥75% = ++++)
45 | 19 (RLLDTTDVYLL; peptide displayed by HLA-A*02) [compound 19] | ++++ (≥75% = ++++)
46 | 16 (KLISDMGKDVSA; peptide displayed by HLA-A*02) [compound 16] | +++ (≥50% = +++)
47 | 37 (AIDDTAARL; peptide displayed by HLA-A*02) [compound 37] | +++ (≥50% = +++)
48 | 30 (QLMEKVQDV; peptide displayed by HLA-A*02) [compound 30] | +++ (≥50% = +++)
49 | 29 (KLLDLTVRI; peptide displayed by HLA-A*02) [compound 29] | ++++ (≥75% = ++++)
50 | 27 (YLFEDISQL; peptide displayed by HLA-A*02) [compound 27] | ++++ (≥75% = ++++)
51 | 1 (ILDSTTIEI; peptide displayed by HLA-A*02) [compound 1] | ++++ (≥75% = ++++)
52 | 39 (AVFDQTVTVI; peptide displayed by HLA-A*02) [compound 39] | +++ (≥50% = +++)
53 | 24 (QLLGRDISL; peptide displayed by HLA-A*02) [compound 24] | ++++ (≥75% = ++++)
54 | 12 (FVDEHTIDI; peptide displayed by HLA-A*02) [compound 12] | +++ (≥50% = +++)
55 | 22 (HMIDLTIHL; peptide displayed by HLA-A*02) [compound 22] | +++ (≥50% = +++)
56 | 25 (FMNDRSFIL; peptide displayed by HLA-A*02) [compound 25] | ++++ (≥75% = ++++)
57 | 23 (FLGPIVDL; peptide displayed by HLA-A*02) [compound 23] | ++++ (≥75% = ++++)
58 | 36 (SLYDFTGEQMAA; peptide displayed by HLA-A*02) [compound 36] | +++ (≥50% = +++)
59 | 17 (NVDSTILNL; peptide displayed by HLA-A*02) [compound 17] | ++++ (≥75% = ++++)
60 | 4 (YVWDRTELL; peptide displayed by HLA-A*02) [compound 4] | ++++ (≥75% = ++++)
61 | 14 (YIYDGKDMSSL; peptide displayed by HLA-A*02) [compound 14] | +++ (≥50% = +++)
62 | 32 (ALADLTGTVVNL; peptide displayed by HLA-A*02) [compound 32] | ++++ (≥75% = ++++)
63 | 33 (ILFDLTHRV; peptide displayed by HLA-A*02) [compound 33] | ++++ (≥75% = ++++)
64 | 38 (AVDGTDARL; peptide displayed by HLA-A*02) [compound 38] | +++ (≥50% = +++)
65 | 35 (SLRDGTEVV; peptide displayed by HLA-A*02) [compound 35] | +++ (≥50% = +++)
66 | 18 (ILDEAKDISF; peptide displayed by HLA-A*02) [compound 18] | +++ (≥50% = +++)
67 | 2 (RLLEGDFSL; peptide displayed by HLA-A*02) [compound 2] | ++++ (≥75% = ++++)
